# In patent US20240218041A1, “MOLECULAR DESIGN OF GLUCOSE SENSORS IN GLUCOSE-RESPONSIVE INSULIN ANALOGUES” (THE TRUSTEES OF INDIANA UNIVERSITY, priority 2021, published 2024):
# Experiments:
# [1] = test system: IR autophosphorylation and downstream p-AKT/AKT, p-FOXO1/FOXO1, p-GSK-3/GSK-3; assay: Western blot signaling assays in HepG2 cells; format: cell-based, human
# Description: Signal propagation was probed via a cytoplasmic kinase cascade and changes in metabolic gene expression in HepG2 cells. […] An overview of IR autophosphorylation (probed by anti-pTyr IR antibodies) and downstream phosphorylation of Ser-Thr protein kinase AKT (protein kinase B; ratio p-AKT/AKT), forkhead transcription factor 1 (p-FOXO1/FOXO1), and glycogen synthase kinase-3 (p-GSK-3/GSK-3) at a single hormone dose (50 nM) was provided by Western blot (WB).
# Signaling assays in a mammalian cell line. HepG2 cell line (ATCC) were cultured in DMEM with 10% FBS, 1% penicillin/streptomycin per vendor's instruction. After 70-75% cell confluence, cells were serum-starved for 24 h and then exposed to medium containing an insulin analogue (each at a protein concentration of 50 nM). After lysis in RIPA buffer (containing protease- and phosphatase-inhibitor cocktails; Roche), the total protein concentrations in the lysate was determined by BCA assay (Thermo). […] Briefly, for p-IR/IR blotting, samples were probed by insulin receptor β (4B8) antibody (CST antibodies unless otherwise stated) or an equal mixture of anti-phospho-insulin receptor β (Tyr1150/1151); phospho-insulin receptor (Tyr1158) antibody (Thermo); phospho-insulin receptor (Tyr1334) antibody (Thermo); phospho-insulin receptor β (Tyr1345) monoclonal antiserum; and anti-phospho-insulin receptor (phospho-Tyr972) antibody (Abcam). […]
# insulin receptor = insulin receptor (Homo sapiens, UniProt P06213); assay: In-cell pIR immunoblotting (pIR/IR phosphorylation, 96-well plate assay) in HepG2 cells; format: cell-based; design: endogenous in cells; host or cells: HepG2 (human hepatocellular carcinoma; ATCC); conditions: for glucose-dependent activity in HepG2 cells in culture: as described in Chen, Y.-S., et al. (2021); for monosaccharide dependence of biological activity (pIR/IR phosphorylation): ±50 mM glucose or ±50 mM fructose
# Description: After starvation, cells were treated in parallel with a set of insulin analogues in serum-free medium.
# In-cell pIR immunoblotting. This cell-based assay probed insulin-dependent IR activation via fluorescent readouts. HepG2 cells were seeded (˜8000 cells/well) into a 96-well black plate with clear bottom and cultured (Fisher). After serum starvation in 100 μl plain Hanks' Balanced Salt Solution (HBSS) for 2 h at 37° C., serial analogue dilutions (100 μl) were applied to each well; cells were then incubated for 20 min at 37° C. After removing medium, 150 μl of 3.7% formaldehyde (Fisher) was added to each well, and plates incubated for 20 min at 37° C. 200 μl of 0.1% Triton-X-100 (Sigma) was then added to permeabilize the cells, followed by their fixation by 100-μl Odyssey Blocking Buffer (LI-COR). A blocking procedure was applied for 1 h at room temperature on an orbital shaker. Fixed cells were then exposed to the primary antibody (10 μL anti-pTyr 4G10 (Sigma) into 20 ml Blocking Buffer) overnight at 4° C. The secondary antibody (anti-mouse-IgG-800-CW antibody (Sigma) in 25 ml Blocking Buffer) was added after a wash. pTyr was detected via 800 nm emission. DRAQ5 (Fisher) was also applied to enable measurement of cell number via 700 nm emission. The fluorescence signals were detected on a LI-COR Infrared Imaging system (Odyssey) under settings as follows: offset 4 mm with setting “Intensity-Auto.”
# [2] = test system: PEPCK, ChREBP and SREBP gene expression in HepG2 cells; assay: Real-time qPCR assays of metabolic gene regulation in HepG2 cells; format: cell-based, human
# Description: Cell culture. Human hepatocellular carcinoma cell line HepG2 was cultured in Dulbecco's Modified Eagle Medium (DMEM), supplemented with 10% fetal bovine serum (FBS), 1% penicillin/streptomycin as recommended by the American Type Culture Collection. A protocol employing 24-h serum starvation wherein FBS was applied at 70-75% confluence. After starvation, cells were treated in parallel with a set of insulin analogues in serum-free medium.
# Real-time qPCR assays. Following serum starvation, HepG2 cells were treated with medium containing an insulin analogue (50 nM) for 8 h. In studies related to possible glucose responsiveness and lipid metabolism, the cells were treated with analogues for 3 or 4 h in media containing either low or normal glucose concentrations. Readouts were provided by downregulation of PEPCK and G6P and upregulation of ChREBP and SREBP. mRNA (messenger ribonucleic acid) abundances were measured in triplicate by quantitative polymerase chain reaction (qPCR). Samples were prepared as described by the vendor (One-Step rt-PCR reagent kits; Bio-Rad).
# [3] = in vivo; cited from earlier work
substance,measurement,setting,value
"FRI: insulin lispro with meta-fluoro-PBA on the α-amino group of GlyA1, 3,4-dihydroxybenzoic acid on LysB28, and HisA8",signaling activity,"[1]; in the absence of fructose, 50 nM",low
same,"fructose dependence of signaling (IR autophosphorylation, p-AKT/AKT, p-FOXO1/FOXO1, p-GSK-3/GSK-3)","[1]; single hormone dose 50 nM, HepG2 cells",fructose-dependent signaling
same,effect of glucose on IR autophosphorylation activity,insulin receptor; addition of 50 mM glucose,did not influence its activity
same,IR autophosphorylation activity relative to KP,insulin receptor; in 50 mM fructose,almost as active as KP
same,baseline IR autophosphorylation activity,insulin receptor; in the absence of fructose,low
same,IR autophosphorylation signal,insulin receptor; on addition of 50 mM fructose,robust signal
same,regulation of PEPCK gene expression,"[2]; activated by fructose, hypoglycemic conditions, HepG2",regulated downstream expression
same,regulation of ChREBP and SREBP genes,"[2]; activated by fructose, normoglycemic conditions, HepG2",regulated the genes
same,effect of glucose on metabolic gene regulation,[2]; addition of glucose instead of fructose,no effects
"GlyA−1, Cys(GBE1-C)A0, SecA6, SecA11, Lys(DHBA)B28-lispro [GRI-4]",glucose-dependent activity in HepG2 cells in culture,insulin receptor,glucose-dependent activity
same,monosaccharide dependence of biological activity (pIR/IR phosphorylation),insulin receptor; HepG2 cells,monosaccharide-dependent biological activity
"GlyA0, D-Cys(GBE1-C)A1, SecA6, SecA11, Lys(DHBA)B28-lispro [GRI-3]",glucose-dependent activity in HepG2 cells in culture,insulin receptor,glucose-dependent activity
same,monosaccharide dependence of biological activity (pIR/IR phosphorylation),insulin receptor; HepG2 cells,monosaccharide-dependent biological activity
same,glucose dependence of pIR/IR phosphorylation,"insulin receptor; ±50 mM glucose, HepG2 cells",glucose-dependent IR phosphorylation
same,glucose-dependent gene regulation,"[2]; PEPCK, ChREBP and SREBP, HepG2 cells in culture",glucose-dependent gene regulation
insulin detemir,per molecule activity relative to human insulin,[3],fourfold reduced
